# Test results as given in PMC3830487, “A DELLA gene, RhGAI1, is a direct target of EIN3 and mediates ethylene-regulated rose petal cell expansion via repressing the expression of RhCesA2”.
# B1: proRhCesA2 probe (dsDNA)
# DNA 1: GCAGAGGGCTAATTTAGTCGGTGGAGAT
# DNA 2: ATCTCCACCGACTAAATTAGCCCTCTGC
# B2: proRhGAI1 mutated probe (dsDNA)
# DNA 1: CAGTCACGTTTTATACTCAGTAAGAGGTATTAAAATTCTAGAG
# DNA 2: CTCTAGAATTTTAATACCTCTTACTGAGTATAAAACGTGACTG
# B3: proRhGAI1 probe (dsDNA)
# DNA 1: CGTTTTATACTAATTCAAAGGTATTAA
# DNA 2: TTAATACCTTTGAATTAGTATAAAACG
# B4: proRhCesA2 mutated probe (dsDNA)
# DNA 1: GCAGAGGGCTGACTCAGTCGGTGGAGATTT
# DNA 2: AAATCTCCACCGACTGAGTCAGCCCTCTGC
# Legend:
# [1] = target: T1, RhGAI1 (C-terminal fragment with binding domain) (rose, UniProt M9XGL2 238-618); experiment: EMSA; competed by unlabelled probe; EMSA per Wang et al. 2011, LightShift chemiluminescent kit (Pierce); 1 ug recombinant protein, 2 nM biotin-labelled probe; buffer, salt, pH and temperature not; details: tags: GST (pGEX-2T), label: biotin, blunt
# T1 sequence: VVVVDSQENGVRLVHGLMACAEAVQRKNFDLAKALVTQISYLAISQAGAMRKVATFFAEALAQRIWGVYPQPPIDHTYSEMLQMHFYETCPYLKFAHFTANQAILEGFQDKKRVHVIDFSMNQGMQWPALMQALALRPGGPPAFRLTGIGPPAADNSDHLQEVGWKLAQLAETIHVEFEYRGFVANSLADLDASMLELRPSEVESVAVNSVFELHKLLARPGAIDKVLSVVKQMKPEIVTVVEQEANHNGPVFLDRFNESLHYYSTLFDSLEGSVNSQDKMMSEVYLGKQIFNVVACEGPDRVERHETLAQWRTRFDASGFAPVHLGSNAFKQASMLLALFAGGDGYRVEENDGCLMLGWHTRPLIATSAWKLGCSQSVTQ
# [2] = target: T2, RhEIN3-3 (N-terminal fragment with DNA-binding domain) (rose, UniProt M9XFM8 141-356); experiment: competition; mutated competitor vs biotin-labelled N1; EMSA per Wang et al. 2011, LightShift chemiluminescent kit (Pierce); 1 ug recombinant protein, 2 nM biotin-labelled probe; buffer, salt, pH and temperature not; details: tags: GST (pGEX-2T), chain copies: 2
# T2 sequence: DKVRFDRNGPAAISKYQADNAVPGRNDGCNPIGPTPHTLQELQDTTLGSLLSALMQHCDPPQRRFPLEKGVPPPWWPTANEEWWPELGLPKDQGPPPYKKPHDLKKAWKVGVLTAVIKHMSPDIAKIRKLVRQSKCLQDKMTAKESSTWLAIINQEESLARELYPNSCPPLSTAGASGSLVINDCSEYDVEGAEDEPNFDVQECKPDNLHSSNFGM
# [3] = target: T2, RhEIN3-3 (N-terminal fragment with …); experiment: EMSA; competed by unlabelled probe; EMSA per Wang et al. 2011, LightShift chemiluminescent kit (Pierce); 1 ug recombinant protein, 2 nM biotin-labelled probe; buffer, salt, pH and temperature not; details: tags: GST (pGEX-2T), chain copies: 2, label: biotin, blunt
# [4] = target: T1, RhGAI1 (C-terminal fragment with …); experiment: competition; mutated competitor vs biotin-labelled N3; EMSA per Wang et al. 2011, LightShift chemiluminescent kit (Pierce); 1 ug recombinant protein, 2 nM biotin-labelled probe; buffer, salt, pH and temperature not; details: tags: GST (pGEX-2T)
binder,measurement,setting,value
B1,binding result,[1],binds
B2,binding result,[2],no binding
B3,binding result,[3],binds
B4,binding result,[4],no binding
